Data published in patent US20140335568.

Tests used:
[1] = system: scFv clone C1 (anti-dsDNA d(AT)4 recombinant antibody) (synthetic (Tomlinson I/J human scFv phage library)); assay: ELONA; conditions: ELISA
[2] = system: scFv clone C1 (anti-dsDNA d(AT)4 recombinant antibody) (synthetic (Tomlinson I/J human scFv phage library)); assay: competition; conditions: competition ELISA against immobilized 35 bp dsDNA, 50% reduction, 1.25x10^7 M-1; discussion gives about 50-80 nM

Sequence	IC50 ([1]; varying immobilized dsDNA at fixed scFv (3 uM))	IC50 ([1]; varying scFv with 25 pmol immobilized dsDNA, single site isotherm, 5xSSCT immobilization, RT)	Kd [2]
AAAAGACTCACTGTTTGTCTGTCGTTCTAGGATATATAT / ATATATATCCTAGAACGACAGACAAACAGTGAGTC [35 bp dsDNA epitope (ssDNA:ssDNA')]	31 nM	238 nM	
ATATATATCCTAGAACGACAGACAAACAGTGAGTCCGCATTGTTACAT (double strand) [Icomp (Icomp:Icomp')]			80 nM
